Reference: US20250376529A1 (Amgen, published 2025)
Positions count from the first letter of the chain named.

B1: 6A5.004.009 (antibody, human IgG1, kappa, N297G, V domains shown)
VH: QVQLVESGGGVVQPGRSLRLSCAASGFSFSSYGMHWVRQPPGKGLEWVAAIWYDANNKYYADSVKGRFTISRDSSKNTLYLQMNSLRAEDTAVYYCARDRTIFGVVLEYWGQGTLVTVSS
VL: DIQMTQSPSSLSASVGDRVTITCQASQDITNYLNWYQQKPGKAPKLLIYDASNLEPGVPSRFSGSGSGTDFTLTISSLQPEDFATYYCQQYDDLFTFGPGTKVDIKR
notes: also called iPS:361120; iPS:361122
B2: 2A11.003 (antibody, human IgG1, kappa, N297G, V domains shown)
VH: QVQLVESGGGVVQPGRSLRLSCAASGFSFSSYGMHWVRQAPGKGLEWVAVIWYDGSNKYYEDSVKGRFTISRDNSKNTLFLQVNSLRAEDTAVYYCARGITIFGHGFEYWGQGTLVTVSS
VL: EIVLTQSPGTLSLSPGERATLSCRASQIFTSTYLAWYQQKPGQAPRLLIYGASSRATGIPDRFSGSGSGTDFTLTISRLEPEDFAVYYCQQYGSSPRFGQGTRLEIKR
notes: also called iPS:335965; iPS:335967
B3: 2A11.005 (antibody, human IgG1, kappa, N297G, V domains shown)
VH: B2 VH with G55A
VL: B2 VL
notes: also called iPS:361165; iPS:361167
B4: 2A11.004 (antibody, human IgG1, kappa, N297G, V domains shown)
VH: B2 VH with S63A
VL: B2 VL
notes: also called iPS:361158; iPS:361160
B5: 2F11.002 (antibody, human IgG1, kappa, N297G, V domains shown)
VH: not shown
VL: B1 VL with T30S, P56T, T72S, D93I, F95L, P99G, D104E
B6: 2F11.005 (antibody, human IgG1, kappa, N297G, V domains shown)
VH: not shown
VL: B1 VL with T30S, P56T, T72S, L73F, D93I, F95L, P99G, D104E
B7: 2F11.008 (antibody, human IgG1, kappa, N297G, V domains shown)
VH: not shown
VL: B1 VL with T30S, P56T, T72S, L73F, F83I, D93I, F95L, P99G, D104E
B8: 2F11.004 (antibody, human IgG1, kappa, N297G, V domains shown)
VH: not shown
VL: B1 VL with T30S, P56T, T72S, F83I, D93I, F95L, P99G, D104E
B9: 2F11.003 (antibody, human IgG1, kappa, N297G, V domains shown)
VH: B1 VH with S28T, P40A, A50V, N56S, S63A, R72S, S74N, E108D
VL: B1 VL with T30S, P56T, T72S, D93I, F95L, P99G, D104E
B10: 2F11.006 (antibody, human IgG1, kappa, N297G, V domains shown)
VH: B1 VH with S28T, P40A, A50V, N56S, S63A, R72S, S74N, E108D
VL: B1 VL with T30S, P56T, T72S, F83I, D93I, F95L, P99G, D104E
B11: 2F11.007 (antibody, human IgG1, kappa, N297G, V domains shown)
VH: B1 VH with S28T, P40A, A50V, N56S, S63A, R72S, S74N, E108D
VL: B1 VL with T30S, P56T, T72S, L73F, D93I, F95L, P99G, D104E
B12: 2F11.010 (antibody, human IgG1, kappa, N297G, V domains shown)
VH: not shown
VL: B1 VL with T30S, P56T, T72S, D93I, F95L, P99G, D104E
B13: 2F11.009 (antibody, human IgG1, kappa, N297G, V domains shown)
VH: B1 VH with S28T, P40A, A50V, N56S, S74N, E108D
VL: B1 VL with T30S, P56T, T72S, D93I, F95L, P99G, D104E
B14: 12H11.006 (antibody, human IgG1, kappa, N297G, V domains shown)
VH: QVPLVQSGAEVKKPGASVKVSCKASGYTFTGYYIHWVRQAPGQGLEWMGWISPNNGDTNYAQKFQDRVTMTRDTSISTAYMELSRLRSDDTAVYYCAREATIFGMLIVPFDYWGQGTLVTVSS
VL: DIVMTQSPDSLSVSLGERATINCKSSQSVLSSSNNKNYLAWYQQKPGQPPNLLIYWTSTRDSGVPDRFSGSGSGTDFTLTINSLQAEDVAVYYCQQYYRTPWTFGQGTKVEIKR
B15: 12H11.012 (antibody, human IgG1, kappa, N297G, V domains shown)
VH: B14 VH with D57E
VL: not shown
B16: 12H11.011 (antibody, human IgG1, kappa, N297G, V domains shown)
VH: B14 VH with N55Q
VL: not shown
B17: 12H11.007 (antibody, human IgG1, kappa, N297G, V domains shown)
VH: B14 VH with N55Q, A97T
VL: B14 VL
B18: 12H11.008 (antibody, human IgG1, kappa, N297G, V domains shown)
VH: B14 VH with D57E, A97T
VL: B14 VL
B19: 12H11.009 (antibody, human IgG1, kappa, N297G, V domains shown)
VH: B14 VH with N55Q, D57E
VL: not shown
B20: 12H11.010 (antibody, human IgG1, kappa, N297G, V domains shown)
VH: B14 VH
VL: not shown
B21: 17B11.002.001 (antibody, human IgG1, lambda, N297G, V domains shown)
VH: QMQLVQSGAEVKKPGASVKVSCKASGYTFTSYDINWVRQATGQGLEWMGWMNPNSGGTGYAQKFQGRVTMTRDTSISTAYMELSSLRSQDTAVYYCARGGDYVWGSYRPYYYYYGMDVWGQGTTVTVSS
VL: QSVLTQPPSVSAAPGQKVTISCSGSSSNIGNNYVSWYQQLPGTAPKLLIYDNNKRPSGIPDRFSGSKSGTSATLGITGLQTGDEADYYCGTWDSSLSAVVFGGGTKLTVLG
B22: 17B11.002.007 (antibody, human IgG1, lambda, N297G, V domains shown)
VH: B21 VH with W104F
VL: B21 VL
B23: 17B11.002.002 (antibody, human IgG1, lambda, N297G, V domains shown)
VH: B21 VH with G57N
VL: B21 VL
B24: 17B11.002 (antibody, human IgG1, lambda, N297G, V domains shown)
VH: B21 VH with G57N
VL: B21 VL with Q38E, L40F
B25: 17B11.002.005 (antibody, human IgG1, lambda, N297G, V domains shown)
VH: B21 VH
VL: B21 VL with G75A
B26: 17B11.002.006 (antibody, human IgG1, lambda, N297G, V domains shown)
VH: B21 VH with T41P, G57N, Q89D
VL: B21 VL with G75A
B27: 17B11.002.003 (antibody, human IgG1, lambda, N297G, V domains shown)
VH: B21 VH
VL: B21 VL with Q38E, L40F
B28: 17B11.002.008 (antibody, human IgG1, lambda, N297G, V domains shown)
VH: B21 VH with T41P, Q89D, W104F
VL: B21 VL with G75A, W92F, D93E
B29: 17B11.002.004 (antibody, human IgG1, lambda, N297G, V domains shown)
VH: B21 VH with T41P, Q89D
VL: B21 VL with G75A, W92F, D93E
B30: 2C2.005.013 (antibody, human IgG1, lambda, N297G, V domains shown)
VH: QMQVVQSGAEVKKPGASVKVSCKASGYTFTGYYMHWVRQAPGQGLEWMGWINPNSGGTNYAQKFQGRVTMTRDTSISTAYMELSSLRSDDTAVYYCARGGDYVFGTYRPHYYYGMDVWGQGTTVTVSS
VL: not shown
B31: 4H9.004.003 (antibody, human IgG1, kappa, N297G, V domains shown)
VH: not shown
VL: DIQMTQSPSSLSASVGDRVTITCRASQGIRNELGWYQQKPGKAPKLLIYGASSLQSGVPSRFSGSGSGTEFTLTISSLQPEDFVTYYCLQHNSYPFTFGQGTKVDVKR

Each binder was assayed against T1, huGIPR ECD (human, UniProt P48546 22-139, limits assumed) (assay: SPR (MASS-1), captured mAb).
T1 construct: Soluble ECD injected in the MASS-1 assay; also called human GIPR extracellular domain
T1 sequence: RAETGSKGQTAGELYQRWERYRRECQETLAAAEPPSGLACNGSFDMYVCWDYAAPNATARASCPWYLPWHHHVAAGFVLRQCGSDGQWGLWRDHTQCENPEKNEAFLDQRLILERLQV
B1: no binding (tested: 200 nM huGIPR ECD).
B2: no binding (tested: 200 nM huGIPR ECD).
B3: no binding (tested: 200 nM huGIPR ECD).
B4: no binding (tested: 200 nM huGIPR ECD).

What follows are binders tested against T2, Rhesus GIPR (rhesus, UniProt F7E1R9 22-466) (assay: cell-based or functional assay).
T2 sequence: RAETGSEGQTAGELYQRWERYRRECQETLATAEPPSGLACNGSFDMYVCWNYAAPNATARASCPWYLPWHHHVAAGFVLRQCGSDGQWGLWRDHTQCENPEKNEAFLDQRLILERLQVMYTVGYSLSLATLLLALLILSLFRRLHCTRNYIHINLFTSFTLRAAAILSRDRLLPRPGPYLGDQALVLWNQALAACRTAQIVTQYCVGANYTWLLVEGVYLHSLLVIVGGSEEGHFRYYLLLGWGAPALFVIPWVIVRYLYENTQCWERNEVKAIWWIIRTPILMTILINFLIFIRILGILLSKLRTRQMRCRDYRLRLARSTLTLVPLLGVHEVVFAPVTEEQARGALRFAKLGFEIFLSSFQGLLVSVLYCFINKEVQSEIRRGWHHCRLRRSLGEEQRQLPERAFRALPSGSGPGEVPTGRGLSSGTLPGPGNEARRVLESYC
With B1 the “Rhesus GIPR CAMP Assay (Conc. mAb @ 60% Inhibition in nM)” value was 23.3 nM.
In the case of B5, the “Rhesus GIPR CAMP Assay (Conc. mAb @ 60% Inhibition in nM)” value is reported as 40 nM.
For B6, the “Rhesus GIPR CAMP Assay (Conc. mAb @ 60% Inhibition in nM)” value was 68.6 nM.
In the case of B7, the “Rhesus GIPR CAMP Assay (Conc. mAb @ 60% Inhibition in nM)” value is reported as 57.4 nM.
In the case of B8, the “Rhesus GIPR CAMP Assay (Conc. mAb @ 60% Inhibition in nM)” value is reported as 35.5 nM.
B9 was tested, and the “Rhesus GIPR CAMP Assay (Conc. mAb @ 60% Inhibition in nM)” value was 1.79 nM.
B10 was tested, and the “Rhesus GIPR CAMP Assay (Conc. mAb @ 60% Inhibition in nM)” value was 1.3 nM.
With B11 the “Rhesus GIPR CAMP Assay (Conc. mAb @ 60% Inhibition in nM)” value was 1.82 nM.
In the case of B12, the “Rhesus GIPR CAMP Assay (Conc. mAb @ 60% Inhibition in nM)” value is reported as 8.24 nM.
With B13 the “Rhesus GIPR CAMP Assay (Conc. mAb @ 60% Inhibition in nM)” value was 36.9 nM.
B14 was tested, and the “Rhesus GIPR CAMP Assay (Conc. mAb @ 60% Inhibition in nM)” value was 0.59 nM.
For B15, the “Rhesus GIPR CAMP Assay (Conc. mAb @ 60% Inhibition in nM)” value was 0.57 nM.
B16 was tested, and the “Rhesus GIPR CAMP Assay (Conc. mAb @ 60% Inhibition in nM)” value was 0.47 nM.
With B17 the “Rhesus GIPR CAMP Assay (Conc. mAb @ 60% Inhibition in nM)” value was 0.56 nM.
For B18, the “Rhesus GIPR CAMP Assay (Conc. mAb @ 60% Inhibition in nM)” value was 0.56 nM.
For B19, the “Rhesus GIPR CAMP Assay (Conc. mAb @ 60% Inhibition in nM)” value was 0.6 nM.
B20 was tested, and the “Rhesus GIPR CAMP Assay (Conc. mAb @ 60% Inhibition in nM)” value was 0.71 nM.
B21 was tested, and the “Rhesus GIPR CAMP Assay (Conc. mAb @ 60% Inhibition in nM)” value was 0.29 nM.
For B22, the “Rhesus GIPR CAMP Assay (Conc. mAb @ 60% Inhibition in nM)” value was 0.9 nM.
With B23 the “Rhesus GIPR CAMP Assay (Conc. mAb @ 60% Inhibition in nM)” value was 0 nM.
For B24, the “Rhesus GIPR CAMP Assay (Conc. mAb @ 60% Inhibition in nM)” value was 0.21 nM.
With B25 the “Rhesus GIPR CAMP Assay (Conc. mAb @ 60% Inhibition in nM)” value was 0.08 nM.
In the case of B26, the “Rhesus GIPR CAMP Assay (Conc. mAb @ 60% Inhibition in nM)” value is reported as 0 nM.
For B27, the “Rhesus GIPR CAMP Assay (Conc. mAb @ 60% Inhibition in nM)” value was 0.08 nM.
For B28, the “Rhesus GIPR CAMP Assay (Conc. mAb @ 60% Inhibition in nM)” value was 7.89 nM.
In the case of B29, the “Rhesus GIPR CAMP Assay (Conc. mAb @ 60% Inhibition in nM)” value is reported as 0.17 nM.
For B30, the “Rhesus GIPR CAMP Assay (Conc. mAb @ 60% Inhibition in nM)” value was 1.23 nM.
In the case of B31, the “Rhesus GIPR CAMP Assay (Conc. mAb @ 60% Inhibition in nM)” value is reported as 0.5 nM.
